Test results from patent publication US20240059752A1 (ZHEJIANG DOER BIOLOGICS CO., LTD., priority 2020, published 2024).
Where no end group is shown, it is not given here. [ ]: non-standard residue; d: D form. Aib = CC(C)(N)C(=O)O

Target: T1, hGIPR (Homo sapiens, UniProt P48546)
T1 construct: expressed in transfected cells
T1 sequence (P48546 22-466): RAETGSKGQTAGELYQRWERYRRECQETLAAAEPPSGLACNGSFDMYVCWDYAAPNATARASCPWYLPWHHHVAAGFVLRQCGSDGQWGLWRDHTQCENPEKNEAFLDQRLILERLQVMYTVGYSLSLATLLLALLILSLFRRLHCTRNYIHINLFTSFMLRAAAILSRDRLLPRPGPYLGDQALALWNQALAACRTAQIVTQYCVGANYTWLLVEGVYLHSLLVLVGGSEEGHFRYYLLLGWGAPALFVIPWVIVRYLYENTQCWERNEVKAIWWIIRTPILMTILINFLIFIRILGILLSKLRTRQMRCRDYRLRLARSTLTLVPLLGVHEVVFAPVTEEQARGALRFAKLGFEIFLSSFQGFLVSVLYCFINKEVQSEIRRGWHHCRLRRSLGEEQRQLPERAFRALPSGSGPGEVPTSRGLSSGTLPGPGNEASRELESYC
Test: GIPR agonist activity, luciferase reporter gene assay in CHO-K1 cells
Format: cell-based
Settings: % that of natural GIP peptide

P29: GCG analogue, SEQ ID No. 5, unconjugated backbone of P29F (H[Aib]QGTFTSDYSK[Aib]KDSQAAQDFVQWLLAGGPSSGAPPPS-NH2)
GIPR agonist activity relative to natural GIP peptide: about 2%
